Results taken from patent US20240000786A1, “COMPOSITION FOR ENHANCING INTRA-CELLULAR NITRIC OXIDE GENERATION” (INSTITUTE OF LIFE SCIENCES, priority 2020, published 2024).

B1: recombinant Nitric oxide synthase interacting protein (NOSIP) (other)
chain: HMTRHGKNCTAGAVYTYHEKKKDTAASGYGTQNIRLSRDAVKDFDCCCLSLQPCHDPVVTPDGYLYEREAILEYILHQKKEIARQMKAYEKQRGTRREEQKELQRAASQDHVRGFLEKESAIVSRPLNPFTAKALSGTSPDDVQPGPSVGPPSKDKDKVLPSFWIPSLTPEAKATKLEKPSRTVTCPMSGKPLRMSDLTPVHFTPLDSSVDRVGLITRSERYVCAVTRDSLSNATPCAVLRPSGAVVTLECVEKLIRKDMVDPVTGDKLTDRDIIVLQRGGTGFAGSGVKLQAEKSRPVMQALE
notes: It was synthesized by GenScript, cloned in pET22b, expressed in E. coli BL21 (DE3) and purified on Ni-NTA and by gel filtration; A His tag is implied but never described; also called rNOSIP; recombinant NOSIP
B2: iNOS Peptide-2 (18 mer iNOS peptide) (peptide)
peptide: NQYYGSFKEAKIEEHLAR
notes: 18-residue iNOS-derived peptide, synthesized commercially by China peptides; also called PP2; PP-2

How the values were obtained:
[1] = molecular target: T1, recombinant human iNOS oxygenase domain (human, UniProt P35228 82-505); experiment: SPR, iNOS immobilised; KD ratio against the row rNOSIP + iNOS peptide2 (= 1)
T1 construct: It was cloned in pET22b, expressed in E. coli BL21 (DE3) and purified on Ni-NTA and by gel filtration; A His tag is implied but never described; In SPR it was immobilised on a GLC chip by amine coupling; also called riNOS; r iNOS
T1 sequence (P35228 other isoform, or with tags, fused parts or gaps limits assumed): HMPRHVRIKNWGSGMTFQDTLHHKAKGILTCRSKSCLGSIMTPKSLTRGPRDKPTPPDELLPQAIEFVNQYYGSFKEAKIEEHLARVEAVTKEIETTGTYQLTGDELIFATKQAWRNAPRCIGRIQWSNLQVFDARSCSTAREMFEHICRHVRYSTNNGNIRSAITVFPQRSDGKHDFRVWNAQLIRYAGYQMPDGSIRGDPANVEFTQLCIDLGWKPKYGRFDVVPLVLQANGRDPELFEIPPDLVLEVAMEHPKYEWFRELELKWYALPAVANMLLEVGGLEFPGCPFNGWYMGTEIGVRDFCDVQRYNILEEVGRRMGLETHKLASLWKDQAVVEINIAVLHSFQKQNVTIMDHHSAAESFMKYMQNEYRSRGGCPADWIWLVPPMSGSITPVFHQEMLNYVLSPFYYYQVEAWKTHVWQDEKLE
Procedure: (§1) Four different iNOS peptides were synthesized commercially by China peptides and iNOS peptides were used for molecular interaction studies with immobilized recombinant iNOS purified protein. The iNOS peptides mediated inhibition of rNOSIP and riNOS protein association in Bio-Rad XPR 36 surface plasmon resonance biosensor instrument. […] 250 nM of iNOS peptides was used for inhibition assay with immobilized ligand(recombinant iNOS) in SPR analysis. Similar condition and concentration of small molecules were used for inhibition of recombinant protein association with immobilized ligand. […] The molecular interaction was carried out at 20° C. and kinetic parameters were determined, after fitting the association and dissociation curves to a 1:1 (Langmuir)-binding model. […] The response curves were also recorded on control surfaces. Results were calculated after subtraction of the control values using the ProteOn Manager software.
(§2) The five small molecules bind with NOSIP and inhibit the association of recombinant NOSIP and recombinant iNOS. […] The molecular interaction was carried out at 20° C. and kinetic parameters were determined, after fitting the association and dissociation curves to a 1:1 (Langmuir)-binding model. […] The response curves were also recorded on control surfaces. Results were calculated after subtraction of the control values using the ProteOn Manager software. […]

[2] = molecular target: T1, recombinant human iNOS oxygenase domain; experiment: SPR, iNOS immobilised, rNOSIP with iNOS peptide 2; this row is the reference of the fold change
[3] = molecular target: T1, recombinant human iNOS oxygenase domain; experiment: SPR, iNOS immobilised, rNOSIP with small molecule CC4; KD ratio against the row rNOSIP + iNOS peptide2
Procedure: as §1, §2

[4] = molecular target: T1, recombinant human iNOS oxygenase domain; experiment: SPR, iNOS immobilised, rNOSIP with small molecule CC5; KD ratio against the row rNOSIP + iNOS peptide2
Procedure: as §1, §2

[5] = molecular target: T1, recombinant human iNOS oxygenase domain; experiment: SPR, iNOS immobilised, rNOSIP with small molecule CC6; KD ratio against the row rNOSIP + iNOS peptide2
Procedure: as §1, §2

[6] = molecular target: T1, recombinant human iNOS oxygenase domain; experiment: SPR, iNOS immobilised, rNOSIP with small molecule CC11; KD ratio against the row rNOSIP + iNOS peptide2
Procedure: as §1, §2

[7] = molecular target: T1, recombinant human iNOS oxygenase domain; experiment: SPR, iNOS immobilised, rNOSIP with small molecule CC13; KD ratio against the row rNOSIP + iNOS peptide2
Procedure: as §1, §2

[8] = molecular target: T1, recombinant human iNOS oxygenase domain; experiment: SPR, iNOS immobilised, rNOSIP pre-incubated 30 min on ice with iNOS peptide 2 (competitor), 20 C, 1:1 Langmuir fit
Procedure: as §1
(§3) The five small molecules bind with NOSIP and inhibit the association of recombinant NOSIP and recombinant iNOS. […] The molecular interaction was carried out at 20° C. and kinetic parameters were determined, after fitting the association and dissociation curves to a 1:1 (Langmuir)-binding model. […] The response curves were also recorded on control surfaces. Results were calculated after subtraction of the control values using the ProteOn Manager software.

[9] = molecular target: T1, recombinant human iNOS oxygenase domain; experiment: SPR (Bio-Rad ProteOn XPR36), iNOS immobilised on GLC chip by amine coupling, NOSIP as analyte, 20 C, 1:1 Langmuir fit
Procedure: (§4) Four different iNOS peptides were synthesized commercially by China peptides and iNOS peptides were used for molecular interaction studies with immobilized recombinant iNOS purified protein. The iNOS peptides mediated inhibition of rNOSIP and riNOS protein association in Bio-Rad XPR 36 surface plasmon resonance biosensor instrument. […] 250 nM of iNOS peptides was used for inhibition assay with immobilized ligand(recombinant iNOS) in SPR analysis. Similar condition and concentration of small molecules were used for inhibition of recombinant protein association with immobilized ligand. […] The rNOSIP protein was incubated with iNOS derived peptide/small molecules for 30 minutes in ice for inhibition assay before the SPR application in our study. The molecular interaction was carried out at 20° C. and kinetic parameters were determined, after fitting the association and dissociation curves to a 1:1 (Langmuir)-binding model. An activated channel without immobilized ligand was used to evaluate nonspecific binding. The response curves were also recorded on control surfaces. Results were calculated after subtraction of the control values using the ProteOn Manager software.
Manager software was used to fit the data with the Langmuir model describing a 1:1 binding stoichiometry. Ka is the association rate constant, Kd is the dissociation rate constant, and KD is the equilibrium dissociation constant, defined by the Kd/Ka ratio for the analytes—ligand binding.

[10] = molecular target: T1, recombinant human iNOS oxygenase domain; experiment: SPR, iNOS immobilised, rNOSIP pre-incubated 30 min on ice with small molecule CC4 (inhibitor), 20 C, 1:1 Langmuir fit
Procedure: as §1, §3

[11] = molecular target: T1, recombinant human iNOS oxygenase domain; experiment: SPR, iNOS immobilised, rNOSIP pre-incubated 30 min on ice with small molecule CC5 (inhibitor), 20 C, 1:1 Langmuir fit
Procedure: as §1, §2

[12] = molecular target: T1, recombinant human iNOS oxygenase domain; experiment: SPR, iNOS immobilised, rNOSIP pre-incubated 30 min on ice with small molecule CC6 (inhibitor), 20 C, 1:1 Langmuir fit
Procedure: as §1, §2

[13] = molecular target: T1, recombinant human iNOS oxygenase domain; experiment: SPR, iNOS immobilised, rNOSIP pre-incubated 30 min on ice with small molecule CC11 (inhibitor), 20 C, 1:1 Langmuir fit
Procedure: as §1, §2

[14] = molecular target: T1, recombinant human iNOS oxygenase domain; experiment: SPR, iNOS immobilised, rNOSIP pre-incubated 30 min on ice with small molecule CC13 (inhibitor), 20 C, 1:1 Langmuir fit
Procedure: as §1, §2

[15] = molecular target: T1, recombinant human iNOS oxygenase domain; experiment: SPR, NOSIP 1000 nM to 62.5 nM over immobilised iNOS in presence of 250 nM iNOS PP2 (competitor), Kinetic-Langmuir analysis (FIG. 2(b))
Procedure: FIG. 2 depicts inhibition of iNOS-NOSIP protein interaction by iNOS derived peptides. […] These interactions was inhibited in presence of different iNOS peptides (250 nM) viz; PP1—red line, PP2—sky blue line at bottom of graph, PP3—blue line and PP4—green line.
as §4

[16] = molecular target: B1; experiment: ITC; this row is the reference of the fold change in Table 1
Procedure: (§5) The 18 mer iNOS peptide (PP2) and small molecules were used for physical association of molecules in calorimetric analysis. The molecular association leads to thermodynamics changes such as Gibb's free energy change (ΔG), entropy change (ΔS), enthalpy change (ΔH) and number of binding sites (N) in interacting solution were investigated by isothermal calorimetry MICROCAL PEQ (Malvern) at 25° C. The sample cell were filled with peptides, small molecules and the reference cell was filled with 25 mM HEPES and 150 mM Sodium chloride, pH=7 and the syringe was filled with NOSIP solution (200 μM). The experiment consisted of multiple injections and each injection contained 1.5 μl of binding solution (recombinant NOSIP solution) with 120 second spacing time between subsequent injections. Sequential titrations were carried out and the sample solution was continuously stirred at 270 rpm by the rotating paddle attached to the syringe needle. Multiple injections of NOSIP made into the sample cell containing interacting solution of peptide and small molecules. The titration curves were analyzed using the analysis software provided with the calorimeter.
The 18 mer iNOS peptide (PP2) and five small molecules were used to analyze physical association in calorimetric analysis. […] The titration curves were analyzed using the analysis software provided with the calorimeter.

[17] = molecular target: B1; experiment: ITC (MicroCal PEAQ), peptide in cell, rNOSIP in syringe, 25 C
Procedure: as §5
The 18 mer iNOS peptide (PP2) and five small molecules were used to analyze physical association in calorimetric analysis. The molecular association leads to thermodynamics changes such as Gibb's free energy change (ΔG), entropy change (ΔS), enthalpy change (ΔH) and number of binding sites (N) in interacting solution were investigated by isothermal calorimetry MICROCAL PEQ (Malvern) at 25° C. The sample cell were filled with peptides, small molecules and the reference cell was filled with 25 mM HEPES and 150 mM Sodium chloride, pH=7 and the syringe was filled with NOSIP solution (200 μM). The experiment consisted of multiple injections and each injection contained 1.5 μl of binding solution with 120 second spacing time between subsequent injections. Sequential titrations were carried out and the sample solution was continuously stirred at 270 rpm by the rotating paddle attached to the syringe needle. Multiple injections of NOSIP made into the sample cell containing interacting solution of peptide and small molecules. The titration curves were analyzed using the analysis software provided with the calorimeter.

[18] = molecular target: B1; experiment: ITC, 10 µM iNOS peptide in the chamber, 150 µM rNOSIP in syringe, 25 C
Procedure: (§6) The predictions were tested for validation by […] (SPR). […] The other 3 peptides (Peptide-1, SEQ ID No: 25), (Peptide3, SEQ ID No: 27), and (peptide-4, SEQ ID No: 28) were less efficient in inhibiting interaction between iNOS and NOSIP as shown in FIG. 2(a). […] NOSIP and iNOS peptide (PP2) binding was measured by titrating 10 μM iNOS peptide in the chamber with 150 μM rNOSIP in syringe at 25° C. Top panel, raw heating power over time; Bottom panel, fit of integrated injection enthalpy over the mole ratio of the reactants.

[19] = molecular target: B1; experiment: ITC, 10 µM iNOS peptide in the chamber, 150 µM rNOSIP in syringe, 25 C; ITC, 25 C; 10 µM iNOS peptide in chamber, 150 µM rNOSIP in syringe
Procedure: as §6

## B1
[1]
  Fold Change (KD): 0.00144
[2]
  Fold Change (KD): 1
[3]
  Fold Change (KD): 176
[4]
  Fold Change (KD): 119
[5]
  Fold Change (KD): 142
[6]
  Fold Change (KD): 164
[7]
  Fold Change (KD): 110
[8]
  KD (M) in presence of iNOS peptide2: 4.94e-06 M
[9]
  Kd: 0.00711 µM
  koff: 0.000681 s⁻¹
  kon: 95700 M⁻¹ s⁻¹
[10]
  KD (M) in presence of small molecule MCULE-4640800528 (CC4): 0.00087 M
[11]
  KD (M) in presence of small molecule MCULE-8469877005 (CC5): 0.000588 M
[12]
  KD (M) in presence of small molecule MCULE-3765839647 (CC6): 0.000704 M
[13]
  KD (M) in presence of small molecule MCULE-8094061955 (CC11): 0.000809 M
[14]
  KD (M) in presence of small molecule MCULE-8395438746 (CC13): 0.000543 M
[15]
  KD in presence of 250 nM iNOS PP2: 0.495 µM
  Ka in presence of 250 nM iNOS PP2: 5360
  Kd in presence of 250 nM iNOS PP2: 0.00265

## B2
[16]
  Fold Change (KD): 1
[17]
  -TΔS: -0.1 kcal/mol
  Kd: 0.548 µM
  ΔG: -8.54 kcal/mol
  ΔH: -8.44 kcal/mol
[18]
  -TΔS: 0.459 kcal/mol
  N: 0.993
  ΔG: -8.61 kcal/mol
  ΔH: -9.07 kcal/mol
[19]
  Kd: 0.493 µM
